Where no end group is shown, it is not given here.
Assays:
[1] = molecular target: T1, PSMA Fab (biotinylated (site not stated)); assay: phage ELISA; PSMA Fab-coated wells pre-incubated with PSMA antigen as competitor, anti-M13-HRP detection
T1 construct: Biotinylated PSMA Fab captured on neutravidin plates in the phage ELISA; also called Anti-PSMA Fab; 006 PSMA Fab

[2] = molecular target: T1, PSMA Fab; assay: phage ELISA; biotinylated PSMA Fab on neutravidin plate, clonal phage supernatant, anti-M13-HRP detection;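 further: wells were preincubated with blocking buffer containing PSMA antigen or with blocking buffer only, then phage supernatant was added without washing for a brief incubation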
Experimental: (§1) Clonal phage were harvested as crude supernatants and screened via standard ELISAs. […] Prior to the addition of clonal phage. wells were incubated with blocking buffer and PSMA antigen or blocking buffer alone. Without washing or aspirating, clonal phage supernatants were then added to the wells and incubated for a short time. Wells were then washed followed by detection of bound phage using a horse radish conjugated anti-M13 antibody.

[3] = molecular target: T2, PSMA Fab (SEQ ID NOs: 19, 20); assay: phage ELISA; biotinylated PSMA Fab on neutravidin plate, anti-M13 HRP; no PSMA antigen
T2 construct: Biotinylated and captured on neutravidin coated plates in the phage ELISA; also called Anti-PSMA Fab; 006 PSMA Fab
Experimental: as §1

[4] = molecular target: T2, PSMA Fab (SEQ ID NOs: 19, 20); assay: phage ELISA; biotinylated PSMA Fab on neutravidin plate, anti-M13 HRP; competitor PSMA antigen pre-incubated
Experimental: as §1

[5] = molecular target: T3, PSMA Fab (biotinylated (site not stated)); assay: clonal phage ELISA on captured PSMA Fab pre-incubated with PSMA antigen (competitor: PSMA), anti-M13-HRP detection
T3 construct: also called Anti-PSMA Fab; 006 PSMA Fab

[6] = molecular target: T3, PSMA Fab; assay: clonal phage ELISA on biotinylated PSMA Fab captured on neutravidin plates, blocking buffer alone, anti-M13-HRP detection
Experimental: as §1

[7] = molecular target: T4, PSMA Fab (006 PSMA Fab); assay: clonal phage ELISA; biotinylated PSMA Fab on neutravidin plate, blocking buffer alone; anti-M13 HRP detection;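 further: crude clonal phage supernatants added without washing to wells pretreated with blocking buffer with or without PSMA antigen, short incubation, then washed before detecting bound phage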
T4 construct: also called Anti-PSMA Fab; anti-PSMA Fab
Experimental: as §1

[8] = molecular target: T4, PSMA Fab (006 PSMA Fab); assay: clonal phage ELISA; biotinylated PSMA Fab on neutravidin plate, wells pre-incubated with PSMA antigen as competitor; anti-M13 HRP detection;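 further: crude clonal phage supernatants added to antigen-treated wells without a wash, incubated briefly, then bound phage read out via horse radish–conjugated anti-M13 antibody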
Experimental: as §1

Binder | Phage binding ELISA signal, Anti-PSMA Fab with PSMA antigen [1] | Phage binding ELISA signal, Anti-PSMA Fab [2] | phage binding ELISA signal [3] | phage binding ELISA signal [4] | also measured
FENWCTPKWMCIGV [Phage-2548] | 0.102 | 1.14 | – | – | –
WDKWCTPPWMCQVH [Phage-2559] | – | – | 1.12 | 0.0758 | –
EFKWCTPEWMCAMA (cysteine pairing not given here; also: fused to phage pIII, linker and fusion site not given here, Clonal phage displaying the peptide, tested as crude supernatant; also called peptide-180 library clone; not shown: fused to the pIII filament protein of the bacteriophage) [Phage-2575] | – | – | – | – | phage binding ELISA signal in presence of PSMA [5]: 0.0845; phage binding ELISA signal [6]: 1.09
AEYWCIPRWMCSQH [Phage-2552] | 0.0882 | 1.14 | – | – | –
SEKWCIPEWMCMYA (Clonal phage displaying the peptide, tested as crude supernatant; also called peptide-180 library clone; not shown: fused to the pIII filament protein of the bacteriophage) [Phage-2581] | – | – | – | – | phage binding ELISA signal in presence of PSMA [5]: 0.0532; phage binding ELISA signal [6]: 1.08
TQKLCIPEWMCEAM [Phage-2555] | 0.0698 | 1.12 | – | – | –
NWKWCIPEWMCAAE (cysteine pairing not given here; also: fused to phage pIII, linker and fusion site not given here) [Phage-2563] | – | – | 1.11 | 0.0635 | –
MFKWCTPQWMCETM [Phage-2554] | 0.124 | 1.13 | – | – | –
VLKWCTPAWMCTGF [Phage-2557] | 0.0805 | 1.12 | – | – | –
LTNWCTPSWMCYGL (Clonal phage displaying the peptide, tested as crude supernatant; also called peptide-180 library clone; not shown: fused to the pIII filament protein of the bacteriophage) [Phage-2577] | – | – | – | – | phage binding ELISA signal in presence of PSMA [5]: 0.0817; phage binding ELISA signal [6]: 1.09
LQTWCIPPWMCEGG [Phage-2556] | 0.0675 | 1.12 | – | – | –
ESHWCIPAWMCEQF [Phage-2546] | 0.0589 | 1.14 | – | – | –
VITWCTPPWMCSGW (Row prints V I T W - T - P - - - S - W) [Phage-2525] | – | – | – | – | Phage binding ELISA signal, Anti-PSMA Fab [7]: 1.17; Phage binding ELISA signal, Anti-PSMA Fab in presence of PSMA antigen [8]: 0.0911
WEKWCTPSWMCSAG (Row prints W E K W - T - S - - - S A G) [Phage-2526] | – | – | – | – | Phage binding ELISA signal, Anti-PSMA Fab [7]: 1.17; Phage binding ELISA signal, Anti-PSMA Fab in presence of PSMA antigen [8]: 0.0743
EPKWCTPPWMCENF [Phage-2567] | – | – | 1.11 | 0.0576 | –
GPKWCTPPWMCWEF (Clonal phage displaying the peptide, tested as crude supernatant; also called peptide-180 library clone; not shown: fused to the pIII filament protein of the bacteriophage) [Phage-2579] | – | – | – | – | phage binding ELISA signal in presence of PSMA [5]: 0.331; phage binding ELISA signal [6]: 1.08
PLKWCIPQWMCTEA [Phage-2544] | 0.0825 | 1.15 | – | – | –
GEKACIPAWMCSEN [Phage-2553] | 0.0736 | 1.13 | – | – | –
WENWCTPTWMCWPN [Phage-2558] | – | – | 1.12 | 0.0834 | –
SEIWCIPAWMCQST [Phage-2564] | – | – | 1.11 | 0.0851 | –
VDPWCKPAWMCLGM [Phage-2566] | – | – | 1.11 | 0.0597 | –

Binder | Phage binding ELISA signal, Anti-PSMA Fab with PSMA antigen [1] | Phage binding ELISA signal, Anti-PSMA Fab [2] | phage binding ELISA signal [3] | phage binding ELISA signal [4] | also measured
IAKLCTPAWMCERH [Phage-2562] | – | – | 1.11 | 0.0803 | –
VEKWCIPEWMCWTV [Phage-2565] | – | – | 1.11 | 0.0709 | –
SEHWCIPQWMCQSV (cysteine pairing not given here; also: fused to phage pIII, linker and fusion site not given here) [Phage-2543] | 0.114 | 1.15 | – | – | –
TFKWCTPAWMCAGF (cysteine pairing not given here; also: fused to phage pIII, linker and fusion site not given here, Clonal phage displaying the peptide, tested as crude supernatant; also called peptide-180 library clone; not shown: fused to the pIII filament protein of the bacteriophage) [Phage-2574] | – | – | – | – | phage binding ELISA signal in presence of PSMA [5]: 0.0801; phage binding ELISA signal [6]: 1.09
YAPWCIPLWMCLDR [Phage-2561] | – | – | 1.11 | 0.161 | –
QYNWCVPAWMCEIS [Phage-2572] | – | – | 1.1 | 0.0848 | –
AIHWCTPPWMCEPQ [Phage-2569] | – | – | 1.1 | 0.0777 | –
EPKWCTPPWMCQSV [Phage-2551] | 0.0734 | 1.14 | – | – | –
VQKWCIPPWMCTHI [Phage-2549] | 0.0958 | 1.14 | – | – | –
QEKMCIPAWMCSEY (Clonal phage displaying the peptide, tested as crude supernatant; also called peptide-180 library clone; not shown: fused to the pIII filament protein of the bacteriophage) [Phage-2576] | – | – | – | – | phage binding ELISA signal in presence of PSMA [5]: 0.0615; phage binding ELISA signal [6]: 1.09
LYNWCTPAWMCYGY [Phage-2545] | 0.284 | 1.15 | – | – | –
FHEWCIPSWMCFKE [Phage-2550] | 0.0984 | 1.14 | – | – | –
VDTWCTPPWMCWGL (cysteine pairing not given here; also: fused to phage pIII, linker and fusion site not given here, also called peptide-180 library clone; not shown: fused to the pIII filament protein of the bacteriophage) [Phage-2573] | – | – | – | – | phage binding ELISA signal in presence of PSMA [5]: 0.0695; phage binding ELISA signal [6]: 1.09
YDVLCKPDWMCNWN [Phage-2568] | – | – | 1.11 | 0.0861 | –
EGKWCIPEWMCISV (Clonal phage displaying the peptide, tested as crude supernatant; also called peptide-180 library clone; not shown: fused to the pIII filament protein of the bacteriophage) [Phage-2582] | – | – | – | – | phage binding ELISA signal in presence of PSMA [5]: 0.0637; phage binding ELISA signal [6]: 1.08
LQEWCIPPWMCIKS (Clonal phage displaying the peptide, tested as crude supernatant; also called peptide-180 library clone; not shown: fused to the pIII filament protein of the bacteriophage) [Phage-2578] | – | – | – | – | phage binding ELISA signal in presence of PSMA [5]: 0.0797; phage binding ELISA signal [6]: 1.09
IAKWCIPSWMCAGI (cysteine pairing not given here; also: fused to phage pIII, linker and fusion site not given here) [Phage-2571] | – | – | 1.1 | 0.139 | –
EGKWCIPDWMCAAH (cysteine pairing not given here; also: fused to phage pIII, linker and fusion site not given here) [Phage-2547] | 0.0598 | 1.14 | – | – | –
GVKWCTPAWMCEWT (Clonal phage displaying the peptide, tested as crude supernatant; also called peptide-180 library clone; not shown: fused to the pIII filament protein of the bacteriophage) [Phage-2580] | – | – | – | – | phage binding ELISA signal in presence of PSMA [5]: 0.0707; phage binding ELISA signal [6]: 1.08
GVMWCIPQWMCVTA [Phage-2560] | – | – | 1.12 | 0.104 | –
EGPWCIPEWMCQNS [Phage-2570] | – | – | 1.1 | 0.0766 | –

From patent US20260242478A1 (published 2026)
